{"source": "patent US20190030114A1", "about": "“ISOFORM-SPECIFIC CALPAIN INHIBITORS, METHODS OF IDENTIFICATION, AND USES THEREOF” (WESTERN UNIVERSITY OF HEALTH SCIENCES, priority 2014, published 2019)", "molecules": {"B1": {"name": "Stargazin gamma-2: protein involved in AMPA receptor trafficking, calpain-2 specific substrate; cytoplasmic C-terminus (protein, UniProt Q9Y698 1-323, looked up)", "Voltage-dependent calcium …": "MGLFDRGVQMLLTTVGAFAAFSLMTIAVGTDYWLYSRGVCKTKSVSENETSKKNEEVMTHSGLWRTCCLEGNFKGLCKQIDHFPEDADYEADTAEYFLRAVRASSIFPILSVILLFMGGLCIAASEFYKTRHNIILSAGIFFVSAGLSNIIGIIVYISANAGDPSKSDSKKNSYSYGWSFYFGALSFIIAEMVGVLAVHMFIDRHKQLRATARATDYLQASAITRIPSYRYRYQRRSRSSSRSTEPSHSRDASPVGIKGFNTLPSTEISMYTLSRDPLKAATTPTATYNSDRDNSFLQVHNCIQKENKDSLHSNTANRRTTPV"}}, "target": "T1, calpain-2 (Homo sapiens, UniProt P17655)", "T1 sequence (P17655 1-700)": "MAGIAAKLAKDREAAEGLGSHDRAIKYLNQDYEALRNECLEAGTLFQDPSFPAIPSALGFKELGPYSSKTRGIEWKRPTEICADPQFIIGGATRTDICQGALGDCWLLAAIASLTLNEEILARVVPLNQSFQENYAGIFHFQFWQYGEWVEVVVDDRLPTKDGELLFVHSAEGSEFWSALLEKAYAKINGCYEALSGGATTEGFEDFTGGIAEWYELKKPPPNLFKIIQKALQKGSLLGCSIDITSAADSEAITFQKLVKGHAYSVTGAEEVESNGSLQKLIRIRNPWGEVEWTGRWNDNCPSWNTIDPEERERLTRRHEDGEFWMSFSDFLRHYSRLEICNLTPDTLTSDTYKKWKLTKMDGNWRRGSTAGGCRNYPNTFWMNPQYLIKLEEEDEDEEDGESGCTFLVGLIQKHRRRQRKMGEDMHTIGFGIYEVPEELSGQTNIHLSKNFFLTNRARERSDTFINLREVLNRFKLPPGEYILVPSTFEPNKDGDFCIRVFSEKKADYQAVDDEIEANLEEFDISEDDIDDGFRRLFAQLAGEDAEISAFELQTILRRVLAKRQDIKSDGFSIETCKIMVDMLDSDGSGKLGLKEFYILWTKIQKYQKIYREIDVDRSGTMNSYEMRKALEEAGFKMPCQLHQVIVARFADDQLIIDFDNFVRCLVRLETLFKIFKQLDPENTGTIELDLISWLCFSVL", "T1 sequence (P04632 1-268 partner)": "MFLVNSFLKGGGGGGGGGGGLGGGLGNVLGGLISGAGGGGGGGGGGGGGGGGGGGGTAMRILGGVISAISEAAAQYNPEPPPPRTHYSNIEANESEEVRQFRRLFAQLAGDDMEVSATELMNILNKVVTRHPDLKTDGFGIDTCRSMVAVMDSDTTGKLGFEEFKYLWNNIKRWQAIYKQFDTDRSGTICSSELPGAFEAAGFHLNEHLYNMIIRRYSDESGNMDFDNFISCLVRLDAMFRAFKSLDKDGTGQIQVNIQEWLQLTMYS", "assay": "in vitro calpain-2 inhibition, succinic-Leu-Tyr-AMC substrate", "type": "biochemical", "settings": "selectivity calpain-2 over calpain-1", "method": "Formula 1, where chiral center 1 is the L-form and chiral center 2 is a racemic mixture of D- and L- in this example was introduced at various concentrations (from 1 nM to 10 μM) into an in vitro mix comprising succinic-Leu-Tyr-AMC and calpain-1 or calpain-2 (Sasaki et al, 1984), and the kinetics of the loss of fluorescence were determined for each of the calpains (Powers et al, 2000). […] Therefore, the assessment of selectivity described herein was different than the prior teaching.\nFormula 1A, where chiral center 1 is the S-form and chiral center 2 is the S-form was separated from the S-R-form (Formula 1B) using methods that are well-known methods for separating diastereoisomers. Formula 1A, which is also referred to herein as compound 18A, in this example was introduced at various concentrations into an in vitro mix comprising succinic-Leu-Tyr-AMC and μ-calpain or m-calpain (Sasaki et al, 1984), and the kinetics of the loss of fluorescence were determined for each of the calpains.", "data": [{"molecule": "B1", "values": [{"measurement": "inhibits calpain-2 more than calpain-1 (Ki lower for calpain-2)", "value": "approximately 100 fold"}]}]}
